Measurements as given in article PMC4908976 (Science signaling, 2016).

T1: Gβγ on affinity beads (Gβ with 3xHA-tagged Gγ) (S. cerevisiae, UniProt P18851 1-423; P18852 1-110)
T1 sequence (looked up) 1: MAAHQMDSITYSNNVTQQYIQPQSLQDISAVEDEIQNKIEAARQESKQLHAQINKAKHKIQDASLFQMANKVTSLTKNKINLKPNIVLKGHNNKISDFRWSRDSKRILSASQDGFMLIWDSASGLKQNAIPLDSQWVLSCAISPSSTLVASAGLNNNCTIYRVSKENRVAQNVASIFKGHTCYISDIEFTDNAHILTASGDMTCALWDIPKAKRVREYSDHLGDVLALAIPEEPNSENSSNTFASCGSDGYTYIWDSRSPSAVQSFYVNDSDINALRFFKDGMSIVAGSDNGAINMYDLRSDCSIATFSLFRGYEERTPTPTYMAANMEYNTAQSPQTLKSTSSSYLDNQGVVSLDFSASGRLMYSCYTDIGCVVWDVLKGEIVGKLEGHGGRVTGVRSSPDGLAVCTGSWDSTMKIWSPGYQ
T1 sequence (looked up) 2: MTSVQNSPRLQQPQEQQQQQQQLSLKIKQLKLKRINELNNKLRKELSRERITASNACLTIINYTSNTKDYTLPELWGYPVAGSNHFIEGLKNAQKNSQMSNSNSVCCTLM


Target: T1, Gβγ on affinity beads (Gβ with …)
Test: affinity purification with mass spectrometry

Gβ/Gβ^P− ratio (total MS intensity on Gβγ beads over that on Gβ^P−γ beads) | Binder
2.25 | myc-tagged Yck1 (yeast casein kinase 1) (enzyme, S. cerevisiae, UniProt P23291 1-538, looked up) MSMPIASTTLAVNNLTNINGNANFNVQANKQLHHQAVDSPARSSMTATTAANSNSNSSRDDSTIVGLHYKIGKKIGEGSFGVLFEGTNMINGVPVAIKFEPRKTEAPQLRDEYKTYKILNGTPNIPYAYYFGQEGLHNILVIDLLGPSLEDLFDWCGRKFSVKTVVQVAVQMITLIEDLHAHDLIYRDIKPDNFLIGRPGQPDANNIHLIDFGMAKQYRDPKTKQHIPYREKKSLSGTARYMSINTHLGREQSRRDDMEALGHVFFYFLRGHLPWQGLKAPNNKQKYEKIGEKKRSTNVYDLAQGLPVQFGRYLEIVRSLSFEECPDYEGYRKLLLSVLDDLGETADGQYDWMKLNDGRGWDLNINKKPNLHGYGHPNPPNEKSRKHRNKQLQMQQLQMQQLQQQQQQQQYAQKTEADMRNSQYKPKLDPTSYEAYQHQTQQKYLQEQQKRQQQQKLQEQQLQEQQLQQQQQQQQQLRATGQPPSQPQAQTQSQQFGARYQPQQQPSAALRTPEQHPNDDNSSLAASHKGFFQKLGCC
2.09 | endogenous Yck2 (untagged native protein) (enzyme, UniProt P23292 1-546, looked up) MSQVQSPLTATNSGLAVNNNTMNSQMPNRSNVRLVNGTLPPSLHVSSNLNHNTGNSSASYSGSQSRDDSTIVGLHYKIGKKIGEGSFGVLFEGTNMINGLPVAIKFEPRKTEAPQLKDEYRTYKILAGTPGIPQEYYFGQEGLHNILVIDLLGPSLEDLFDWCGRRFSVKTVVQVAVQMITLIEDLHAHDLIYRDIKPDNFLIGRPGQPDANKVHLIDFGMAKQYRDPKTKQHIPYREKKSLSGTARYMSINTHLGREQSRRDDMEAMGHVFFYFLRGQLPWQGLKAPNNKQKYEKIGEKKRLTNVYDLAQGLPIQFGRYLEIVRNLSFEETPDYEGYRMLLLSVLDDLGETADGQYDWMKLNGGRGWDLSINKKPNLHGYGHPNPPNEKSKRHRSKNHQYSSPDHHHHYNQQQQQQQAQAQAQAQAQAKVQQQQLQQAQAQQQANRYQLQPDDSHYDEEREASKLDPTSYEAYQQQTQQKYAQQQQKQMQQKSKQFANTGANGQTNKYPYNAQPTANDEQNAKNAAQDRNSNKSSKGFFSKLGCC
